These results are taken from US20200164059A1.

Where two headings read alike, the source gives them in different places.

For assay [1], the target named is gp350 on EBV virions (Epstein Barr virus) (UniProt P03200). The assay can be described thus: cell-based or functional assay.
In assay [2] the target is EBV gH/gL heterodimer, recombinant ectodomain (Epstein Barr virus). The assay can be described thus: BLI kinetics, pH 7.4, ligand CL40 Mab, analyte gH/gL; koff (1/s) x10^-3. A general note: BLI is a label-free optical method that tracks binding on a fibre tip over time.
The target is the same in assay [3]. The assay can be described thus: BLI kinetics, pH 7.4, ligand CL40 Mab, analyte gH/gL; KD M x10^-9.
For assay [4] the target is unchanged. Description: BLI kinetics, pH 5.0, ligand CL40 Mab, analyte gH/gL; KA M^-1 x10^7.
Assay [5] shares this target. The assay can be described thus: BLI kinetics, pH 5.0, ligand CL40 Mab, analyte gH/gL; KD M x10^-9.
Assay [6] shares this target. Description: BLI kinetics, pH 5.0, ligand CL40 Mab, analyte gH/gL; koff (1/s) x10^-3.
The target is the same in assay [7]. Description: BLI kinetics, pH 5.0, ligand CL40 Mab, analyte gH/gL; kon (1/Ms) x10^5.
Assay [8] shares this target. Description: BLI kinetics, pH 7.4, ligand CL40 Mab, analyte gH/gL; KA M^-1 x10^7.
The target of assay [9] is gH/gL on EBV virions (Epstein Barr virus) (UniProt P03231). The assay can be described thus: cell-based or functional assay.
Assay [10] concerns the target EBV gH/gL heterodimer, recombinant ectodomain (Epstein Barr virus). The assay can be described thus: BLI kinetics, pH 7.4, ligand CL40 Mab, analyte gH/gL; kon (1/Ms) x10^5.
Assay [11] has the same target. The assay can be described thus: BLI kinetics, pH 5.0, ligand CL59 Mab, analyte gH/gL; KD M x10^-9.
Assay [12] shares this target. The assay can be described thus: BLI kinetics, pH 7.4, ligand CL59 Mab, analyte gH/gL; KD M x10^-9.
Assay [13] has the same target. Description: BLI kinetics, pH 7.4, ligand CL59 Mab, analyte gH/gL; KA M^-1 x10^7.
Assay [14] has the same target. Description: BLI kinetics, pH 7.4, ligand CL59 Mab, analyte gH/gL; koff (1/s) x10^-3.
Assay [15] has the same target. Description: BLI kinetics, pH 5.0, ligand CL59 Mab, analyte gH/gL; koff (1/s) x10^-3.
For assay [16] the target is unchanged. The assay can be described thus: BLI kinetics, pH 5.0, ligand CL59 Mab, analyte gH/gL; KA M^-1 x10^7.
Assay [17] has the same target. Description: BLI kinetics, pH 7.4, ligand CL59 Mab, analyte gH/gL; kon (1/Ms) x10^5.
Assay [18] has the same target. Description: BLI kinetics, pH 5.0, ligand CL59 Mab, analyte gH/gL; kon (1/Ms) x10^5.
The target is the same in assay [19]. Description: BLI kinetics, pH 7.4, ligand gH/gL, analyte gp42; kon (1/Ms) x10^5.
Assay [20] shares this target. The assay can be described thus: BLI kinetics, pH 7.4, ligand gH/gL, analyte gp42; KD M x10^-9.
The target is the same in assay [21]. The assay can be described thus: BLI kinetics, pH 7.4, ligand gH/gL, analyte gp42; koff (1/s) x10^-3.
The target is the same in assay [22]. The assay can be described thus: BLI kinetics, pH 7.4, ligand gH/gL, analyte gp42; KA M^-1 x10^7.
The target is the same in assay [23]. Description: BLI kinetics, pH 7.4, ligand gH/gL, analyte gp42 T175A; KD M x10^-9.
For assay [24] the target is unchanged.

In [1], 72A1 (antibody) displayed a neutralization of B95.8/F EBV infection of B (Raji) cells, IC50 of 0.08 µg/mL.

Regarding CL40 (antibody), the koff – broadly, a measure of how fast the partners let go of each other – in [2] is 0.00318 s⁻¹; in assay [6], 0.00356 s⁻¹. The values for the Kd in [3] and in assay [5] were 6.77 nM and 5.99 nM, respectively. For the same substance, the Ka is 1.67e+08 M⁻¹ in assay [4] and 1.48e+08 M⁻¹ in [8]. In addition, the figures for the kon in assay [7] and in [10] were 594000 M⁻¹ s⁻¹ and 469000 M⁻¹ s⁻¹, respectively. Moreover, the concentration reducing B cell (Raji) infection to 50% in assay [9] came out at 14.6 µg/mL. In addition, the fold decrease in fold potency against AMMO1, B cell (Raji) infection in assay [9] was 100 fold.

Regarding CL59 (antibody), the equilibrium dissociation constant (Kd) (usually the equilibrium constant for the complex coming apart) was 5.52 nM in assay [11] and 6.39 nM in [12]. In addition, the Ka in assay [13] is 1.57e+08 M⁻¹; in [16], 1.81e+08 M⁻¹. Also, the koff stood at 0.0028 s⁻¹ in [14] and 0.00186 s⁻¹ in assay [15]. Further, the kon (commonly a measure of how fast the partners come together) in assay [17] was determined as 438000 M⁻¹ s⁻¹; in assay [18] it was 337000 M⁻¹ s⁻¹.

In the case of EBV gp42, recombinant ectodomain, the kon in [19] is 224000 M⁻¹ s⁻¹. Also, the Kd in assay [20] amounted to 1.28 nM. In assay [21], the koff was determined as 0.000286 s⁻¹. The Ka in assay [22] was 7.84e+08 M⁻¹.

Consider gp42 T175A, recombinant ectodomain, for which the dissociation constant Kd in assay [23] is 2.06 nM. In [24], the Ka amounted to 4.85e+08 M⁻¹, the koff was determined as 0.000299 s⁻¹ and the on-rate constant (kon) came to 145000 M⁻¹ s⁻¹.
